Among the data in publication PMC10397247 are interaction score values, retold here.

Holding throughout (test): two-hybrid library CCmax;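 note: natural log of median RNA to DNA barcode read ratio; higher means stronger binding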
In one assay the target is T1, 4H478-AA.
T1 chain: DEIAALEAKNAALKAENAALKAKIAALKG
Particulars: mean of both orientations.

In another assay the target is T2, 4H971-AA.
T2 chain: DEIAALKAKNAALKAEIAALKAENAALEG
The conditions noted are these: mean of both orientations.

The next assay deals with T3, 4H189-AA.
T3 chain: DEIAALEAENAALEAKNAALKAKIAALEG
Particulars: mean of both orientations.

Another assay addresses T4, 4H146-AA.
T4 chain: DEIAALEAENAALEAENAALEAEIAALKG
The conditions noted are these: mean of both orientations.

The next assay addresses T5, 4H2713-AA.
T5 chain: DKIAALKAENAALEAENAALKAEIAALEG
The conditions noted are these: mean of both orientations.

Another assay addresses T6, 4H3102-AA.
T6 chain: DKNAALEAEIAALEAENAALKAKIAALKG
Particulars: mean of both orientations.

The target in the next assay is T7, 4H1809-AA.
T7 chain: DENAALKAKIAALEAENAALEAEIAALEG
Particulars: mean of both orientations.

Another assay concerns the target T8, 4H3121-AA.
T8 chain: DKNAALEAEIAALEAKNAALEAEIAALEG
The conditions noted are these: mean of both orientations.

Another assay deals with T9, 4H3666-AA.
T9 chain: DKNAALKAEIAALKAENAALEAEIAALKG
Particulars: mean of both orientations.

A further assay deals with T10, 4H3939-AA.
T10 chain: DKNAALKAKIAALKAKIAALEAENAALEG
The conditions noted are these: mean of both orientations.

For a further assay, the target named is T11, 4H2991-AA.
T11 chain: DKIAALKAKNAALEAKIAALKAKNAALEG
The conditions noted are these: mean of both orientations.

The next assay concerns the target T12, 4H3446-AA.
T12 chain: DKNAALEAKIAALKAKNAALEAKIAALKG
Particulars: mean of both orientations.

The next assay has as its target T13, 4H3417-AA.
T13 chain: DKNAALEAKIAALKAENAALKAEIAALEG
Particulars: mean of both orientations.

The target of the next assay is T14, 4H675-AA.
T14 chain: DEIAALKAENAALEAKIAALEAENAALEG
Particulars: mean of both orientations.

For the next assay, the target named is T15, 4H3920-AA.
T15 chain: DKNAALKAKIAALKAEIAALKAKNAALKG
Particulars: mean of both orientations.

A further assay concerns the target T16, 4H1391-AA.
T16 chain: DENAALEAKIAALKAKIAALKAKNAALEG

The next assay addresses T17, 4H428-AA.
T17 chain: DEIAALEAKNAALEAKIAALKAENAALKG
The conditions noted are these: mean of both orientations.

Another assay addresses T18, 4H1854-AA.
T18 chain: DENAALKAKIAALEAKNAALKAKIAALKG
Particulars: mean of both orientations.

The next assay concerns the target T19, 4H391-AA.
T19 chain: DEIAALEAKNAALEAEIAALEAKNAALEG
Particulars: mean of both orientations.

A further assay concerns the target T20, 4H3709-AA.
T20 chain: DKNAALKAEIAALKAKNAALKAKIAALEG
The conditions noted are these: mean of both orientations.

For the next assay, the target named is T21, 4H2283-AA.
T21 chain: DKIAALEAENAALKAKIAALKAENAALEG
The conditions noted are these: mean of both orientations.

A further assay addresses T22, 4H3066-AA.
T22 chain: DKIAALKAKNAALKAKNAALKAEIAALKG
Particulars: mean of both orientations.

Another assay has as its target T23, 4H497-AA.
T23 chain: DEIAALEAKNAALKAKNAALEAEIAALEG
Particulars: mean of both orientations.

The target of the next assay is T24, 4H2742-AA.
T24 chain: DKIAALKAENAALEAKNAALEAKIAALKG

In a further assay the target is T25, 4H3628-AA.
T25 chain: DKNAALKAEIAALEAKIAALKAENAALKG
Particulars: mean of both orientations.

The target of another assay is T26, 4H2248-AA.
T26 chain: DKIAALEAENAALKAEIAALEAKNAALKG
Particulars: mean of both orientations.

Another assay concerns the target T27, 4H656-AA.
T27 chain: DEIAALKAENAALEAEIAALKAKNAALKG
Particulars: mean of both orientations.

A further assay has as its target T28, 4H3029-AA.
T28 chain: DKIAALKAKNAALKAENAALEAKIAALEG
Particulars: mean of both orientations.

Another assay concerns the target T29, 4H3591-AA.
T29 chain: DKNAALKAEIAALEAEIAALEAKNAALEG
The conditions noted are these: mean of both orientations.

The next assay addresses T30, 4H2948-AA.
T30 chain: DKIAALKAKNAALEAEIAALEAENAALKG
The conditions noted are these: mean of both orientations.

A further assay deals with T31, 4H3651-AA.
T31 chain: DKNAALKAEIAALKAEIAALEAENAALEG
The conditions noted are these: mean of both orientations.

In a further assay the target is T32, 4H465-AA.
T32 chain: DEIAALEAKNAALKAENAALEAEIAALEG
The conditions noted are these: mean of both orientations.

Another assay concerns the target T33, 4H3705-AA.
T33 chain: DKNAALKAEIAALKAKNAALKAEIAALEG
The conditions noted are these: mean of both orientations.

For a further assay, the target named is T34, 4H895-AA.
T34 chain: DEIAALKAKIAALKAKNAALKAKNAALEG
The conditions noted are these: mean of both orientations.

Another assay concerns the target 4H_GCN4.
Another assay concerns the target T35, 4H3365-AA.
T35 chain: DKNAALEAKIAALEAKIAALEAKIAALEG
Particulars: mean of both orientations.

A further assay addresses T36, 4H2750-AA.
T36 chain: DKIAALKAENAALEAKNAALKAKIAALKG
Particulars: mean of both orientations.

In the next assay the target is T37, 4H3020-AA.
T37 chain: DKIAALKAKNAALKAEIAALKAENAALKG
Particulars: mean of both orientations.

A further assay deals with T38, 4H2898-AA.
T38 chain: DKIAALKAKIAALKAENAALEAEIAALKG
The conditions noted are these: mean of both orientations.

The target in another assay is T39, 4H_APH.
T39 chain: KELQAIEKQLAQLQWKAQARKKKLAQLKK
Particulars: mean of both orientations.

The target of a further assay is T40, 4H_BCR.
T40 chain: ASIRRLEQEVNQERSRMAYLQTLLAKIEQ
Particulars: mean of both orientations.

The target in the next assay is T41, 4H535-AA.
T41 chain: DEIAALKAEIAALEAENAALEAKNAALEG
Particulars: mean of both orientations.

The target of another assay is GCN2_T. The conditions noted are these: mean of both orientations.
The target in the next assay is T42, 4H58-AA.
T42 chain: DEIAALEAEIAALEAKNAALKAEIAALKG
Particulars: mean of both orientations.

The target of a further assay is T43, 4H3782-AA.
T43 chain: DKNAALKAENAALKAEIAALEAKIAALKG
Particulars: mean of both orientations.

In another assay the target is T44, 4H2721-AA.
T44 chain: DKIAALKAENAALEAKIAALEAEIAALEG

The next assay concerns the target T45, 4H355-AA.
T45 chain: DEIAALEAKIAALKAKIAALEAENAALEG
Particulars: mean of both orientations.

Another assay has as its target T46, 4H486-AA.
T46 chain: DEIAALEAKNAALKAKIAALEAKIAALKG
Particulars: mean of both orientations.

4H_GCN4, sequence (chain, as listed by the source): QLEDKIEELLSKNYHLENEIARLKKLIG

Turning to DENAALEAKIAALKAKIAALKAKNAALEG [4H1391-AA], the interaction score was -1.53 with 4H478-AA; -1.37 in the assay with 4H971-AA; -1.54 with 4H189-AA; -1.65 with 4H146-AA; -1.47 with 4H2713-AA; -1.1 in the assay with 4H3102-AA. Also, the interaction score was -0.868 with 4H1809-AA; -1.32 with 4H3121-AA; -1.8 with 4H3666-AA; -1.09 with 4H3939-AA; -2.12 with 4H2991-AA; -1.64 with 4H3446-AA. Moreover, the interaction score is -1.93 with 4H3417-AA; -1.62 with 4H675-AA; -0.296 in the assay with 4H3920-AA; -0.77 with 4H1391-AA; -1.77 in the assay with 4H428-AA; -1.81 in the assay with 4H1854-AA. Besides, the interaction score in the assay with 4H391-AA was -1.36; with 4H3709-AA, -1.44; with 4H2283-AA it was -1.61; with 4H3066-AA, -1.99; with 4H497-AA, -1.59; in the assay with 4H2742-AA, -1.48. Besides, the interaction score with 4H3628-AA is 0.211; with 4H2248-AA, -1.32; in the assay with 4H656-AA, -1.09; with 4H3029-AA it was -1.41; with 4H3591-AA, 2.15; with 4H2948-AA, -1.19.
In the case of DKIAALKAENAALEAKIAALEAEIAALEG [4H2721-AA], the interaction score with 4H3651-AA is -1.51; with 4H465-AA, -0.696; in the assay with 4H3705-AA, 1.59; with 4H895-AA, -1.62; with 4H_GCN4 it was -1.31; with 4H3365-AA, -1.58. Moreover, the interaction score in the assay with 4H2750-AA is 0.408; in the assay with 4H3020-AA, -1.05; with 4H2898-AA, 0.892; with 4H_APH, -2.01; with 4H_BCR, -1.38; with 4H535-AA it was -1.55. Further, the interaction score with GCN2_T was -0.835; with 4H58-AA, 0.0667; with 4H3782-AA it was 1.73; with 4H2721-AA it was 0.879; in the assay with 4H355-AA, -0.56; with 4H486-AA, 2.11.
